The target of this assay is Heterogeneous nuclear ribonucleoprotein A2/B1 (HNRNPA2B1), endogenous (human (endogenous in U2OS)).
Heterogeneous nuclear ribonucleoprotein A2/B1 (HNRNPA2B1), endogenous (human (endogenous in U2OS)), sequence (P22626 whole entry): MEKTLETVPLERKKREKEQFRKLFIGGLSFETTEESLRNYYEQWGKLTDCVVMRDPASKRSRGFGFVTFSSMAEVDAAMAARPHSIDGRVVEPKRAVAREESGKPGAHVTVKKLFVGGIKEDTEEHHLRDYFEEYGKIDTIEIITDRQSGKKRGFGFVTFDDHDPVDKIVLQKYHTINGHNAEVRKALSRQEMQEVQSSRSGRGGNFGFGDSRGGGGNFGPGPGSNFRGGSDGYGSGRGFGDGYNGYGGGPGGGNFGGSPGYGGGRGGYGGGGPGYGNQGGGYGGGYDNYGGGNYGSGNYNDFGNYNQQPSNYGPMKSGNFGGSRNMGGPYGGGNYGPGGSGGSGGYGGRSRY

Substance “Replication Protein A subunit RPA70 (RPA1), endogenous (from UniProt P27694 1-616) (natural protein)” registered a percent of RPA1 bound by HNRNPA2B1 of 43%.

Values taken from publication PMC9975078.
